Assay in all cases: BLI
Assay [1] addresses T1, gp120 Czm (clade C, 96ZM652) (HIV-1 isolate 96ZM652).
For assay [2], the target named is Bal gp120 (HIV-1 isolate Bal).
In assay [3] the target is T2, gp120 A2 (clade A, 92UG037.8) (HIV-1 isolate 92UG037.8).
The target of assay [4] is gp120 AE (clade E, 93TH976.17) (HIV-1 isolate 93TH976.17).
The target in assay [5] is gp120 B (clade B, 92US715.6) (HIV-1 isolate 92US715.6).
Assay [6] has as its target T1, gp120 Czm (clade C, 96ZM652). The source holds these as a separate data set.
Assay [7] deals with Bal gp120 (HIV-1 isolate Bal). This is another data set of the same source.
Assay [8] concerns the target T2, gp120 A2 (clade A, 92UG037.8). The source holds these as a separate data set.

The record followed here is publication PMC11109196 (2024).

As a reminder, the koff is the rate constant with which the complex falls apart. A higher koff goes with a short-lived complex. As usually defined, the Kd is the free concentration of one partner at which half of the binding sites on the other are occupied at equilibrium, for simple one-to-one binding. A low value points to higher affinity.

B1: HmAb64 (antibody, V domains shown)
VH: QVQLVQSGAEVKKPGASVKVSCKASGYTFTSYDITWVRQAPGQGLEWMGWISAYNGDTNYAQRLQGRVTMTTDTSTSTAYMELRSLRSDDTAVYYCARAKHTVLVTAMRWFDPWGQGTLVTVSS
VL: DIQMTQSPSSLSASVGDRVTITCRASQSISNYLNWYQQKPGKAPKLLISATSSLQSGVPSRFSGSGSGTDFTLTISSLQPDDFATYYCQQSYSTPWTFGQGTKLEIK
In the case of B1, the koff in assay [1] was 0.000454 s⁻¹; with Bal gp120 [2], 0.000459 s⁻¹; in assay [3], 0.000641 s⁻¹; in assay [4], 0.000423 s⁻¹; in assay [5], 0.000684 s⁻¹. Besides, the Kd in assay [4] is 20 nM; in assay [5], 22.9 nM; in assay [6], 22.5 nM; in the assay with Bal gp120 [7] it was 16 nM; in assay [8], 39.4 nM.
